According to PMC7619307, “The Golgi vesicle tether p115 can bind directly to the ER exit site organiser Sec16A” (Journal of cell science, 2026):

Molecular target: T1, FLAG-tagged p115 head domain (1–655) (human, UniProt O60763 1-655)
T1 sequence (looked up): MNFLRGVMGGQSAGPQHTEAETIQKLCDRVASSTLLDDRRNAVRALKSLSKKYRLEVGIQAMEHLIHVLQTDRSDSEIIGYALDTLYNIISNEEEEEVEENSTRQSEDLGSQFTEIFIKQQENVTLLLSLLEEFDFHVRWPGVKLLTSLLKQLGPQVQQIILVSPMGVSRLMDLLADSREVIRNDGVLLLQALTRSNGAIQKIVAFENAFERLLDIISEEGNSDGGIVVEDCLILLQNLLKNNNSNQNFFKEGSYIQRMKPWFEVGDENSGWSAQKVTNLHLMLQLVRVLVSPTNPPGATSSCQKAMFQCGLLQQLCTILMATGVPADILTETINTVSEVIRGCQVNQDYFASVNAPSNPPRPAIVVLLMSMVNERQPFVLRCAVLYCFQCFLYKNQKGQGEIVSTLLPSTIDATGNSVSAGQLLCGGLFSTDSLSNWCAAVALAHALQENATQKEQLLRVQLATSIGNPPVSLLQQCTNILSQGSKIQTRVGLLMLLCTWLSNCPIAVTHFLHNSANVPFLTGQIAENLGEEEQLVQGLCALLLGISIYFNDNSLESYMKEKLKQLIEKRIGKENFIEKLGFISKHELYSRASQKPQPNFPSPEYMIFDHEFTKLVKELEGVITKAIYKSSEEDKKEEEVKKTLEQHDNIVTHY
Assay: pull-down; direct binding assay: FLAG-tagged protein eluted from anti-FLAG beads (1 M NaCl wash, 3×FLAG peptide) was incubated for 1 h at 4°C with GFP-tagged protein held on GFP-Trap beads after harsh washes (1% SDS; 1 M NaCl, 1% Triton X-100); washes with 300 mM NaCl; immunoblot
Conditions: both partners purified

binding result: binds
B1: Sec16A (650–776)–GFP (domain or fragment, human, UniProt O15027 650-776, looked up)
chain: ALPDASPGNLEQPPDNMETLCAPQVCPLPLNSTTEAVHMLPHAGAPPLDTVYPAPEKRPSARTQGPVKCESPATTLWAQSELPDFGGNVLLAPAAPALYVCAKPQPPVVQPPEEAMSGQQSRNPSSA
notes: source: HEK293T, transfected, in lysate (co-precipitation); not shown: GFP, C-terminal, kept
